PMC2907653

Columns and labels:
purified protein [1] = substrate: CO[C@@H]1[C@H](O)[C@@H](COP(=O)(O)OP(=O)(O)OP(=O)(O)OC[C@H]2O[C@@H](n3c[n+](C)c4c(=O)[nH]c(N)nc43)[C@H](O)[C@@H]2O)O[C@H]1n1cnc2c(=O)[nH]c(N)nc21; assay: purified protein; details: cleaved between β and γ phosphates; pH 7.2; 20.0 °C
purified protein [2] = substrate: CNc1ncnc2c1ncn2[C@@H]1O[C@H](COP(=O)(O)OP(=O)(O)OP(=O)(O)OC[C@H]2O[C@@H](n3c[n+](C)c4c(=O)[nH]c(N)nc43)[C@H](O)[C@@H]2O)[C@@H](O)[C@H]1O; assay: purified protein; details: cleaved between β and γ phosphates; pH 7.2; 20.0 °C
purified protein [3] = substrate: CN(C)c1nc2c(c(=O)[nH]1)[n+](C)cn2[C@@H]1O[C@H](COP(=O)(O)OP(=O)(O)OP(=O)(O)OC[C@H]2O[C@@H](n3cnc4c(N)ncnc43)[C@H](O)[C@@H]2O)[C@@H](O)[C@H]1O; assay: purified protein; details: cleaved between β and γ phosphates; pH 7.2; 20.0 °C
purified protein [4] = substrate: C[n+]1cn([C@@H]2O[C@H](COP(=O)(O)OP(=O)(O)OP(=O)(O)OC[C@H]3O[C@@H](n4cnc5c(=O)[nH]c(N)nc54)C[C@@H]3O)[C@@H](O)[C@H]2O)c2nc(N)[nH]c(=O)c21; assay: purified protein; details: cleaved between β and γ phosphates; pH 7.2; 20.0 °C
purified protein [5] = substrate: C[n+]1cn([C@@H]2O[C@H](COP(=O)(O)OP(=O)(O)OP(=O)(O)OC[C@H]3O[C@@H](n4cnc5c(=O)[nH]c(N)nc54)[C@H](O)[C@@H]3O)[C@@H](O)[C@H]2O)c2nc(N)[nH]c(=O)c21; assay: purified protein; details: cleaved between β and γ phosphates; cap-binding pocket; pH 7.2; 20.0 °C
purified protein [6] = substrate: C[n+]1cn([C@@H]2O[C@H](COP(=O)(O)OP(=O)(O)OP(=O)(O)OC[C@H]3O[C@@H](n4cnc5c(N)ncnc54)[C@H](O)[C@@H]3O)[C@@H](O)[C@H]2O)c2nc(N)[nH]c(=O)c21; assay: purified protein; details: cleaved between β and γ phosphates; pH 7.2; 20.0 °C
purified protein [7] = substrate: C[n+]1cn([C@@H]2O[C@H](COP(=O)(O)OP(=O)(O)OP(=O)(O)OC[C@H]3O[C@@H](n4c[n+](C)c5c(=O)[nH]c(N)nc54)[C@H](O)[C@@H]3O)[C@@H](O)[C@H]2O)c2nc(N)[nH]c(=O)c21; assay: purified protein; details: cleaved between β and γ phosphates; pH 7.2; 20.0 °C
purified protein [8] = substrate: CC[n+]1cn([C@@H]2O[C@H](COP(=O)(O)OP(=O)(O)OP(=O)(O)OC[C@H]3O[C@@H](n4cnc5c(=O)[nH]c(N)nc54)[C@H](O)[C@@H]3O)[C@@H](O)[C@H]2O)c2nc(N)[nH]c(=O)c21; assay: purified protein; details: cleaved between β and γ phosphates; cap-binding pocket; pH 7.2; 20.0 °C
purified protein [9] = substrate: Nc1nc2c(ncn2[C@@H]2O[C@H](COP(=O)(O)OP(=O)(O)OP(=O)(O)OC[C@H]3O[C@@H](n4c[n+](Cc5ccccc5)c5c(=O)[nH]c(N)nc54)[C@H](O)[C@@H]3O)[C@@H](O)[C@H]2O)c(=O)[nH]1; assay: purified protein; details: cleaved between β and γ phosphates; cap-binding pocket; pH 7.2; 20.0 °C
[10] = substrate: CN(C)c1nc2c(c(=O)[nH]1)[n+](C)cn2[C@@H]1O[C@H](COP(=O)(O)OP(=O)(O)OP(=O)(O)OC[C@H]2O[C@@H](n3cnc4c(=O)[nH]c(N)nc43)[C@H](O)[C@@H]2O)[C@@H](O)[C@H]1O; assay: fluorimetric and HPLC hydrolysis kinetics; type: biochemical, Caenorhabditis elegans; details: cleaved between β and γ phosphates; cap-binding pocket; pH 7.2; 20.0 °C

B1: C. elegans scavenger decapping enzyme (DcpS) (Caenorhabditis elegans) (protein)
chain: MKRIADEELVREERAEESTQKWLQDAKFQEILGADSSHKSLFVLLSHPDGSQGILLANKSPFSEEKSDIEKLLATAQLQEISRNDIFGSYNIEIDPKLNLLKSQLIYPINDRLIAKYRQEEKFVIRETPELYETVTRPYIEKYQLNLNWVYNCLEKRSEVDKIVFEDPDNENGFVLLQDIKWDGKTLENLYVLAICHRHGLKSVRDLTGDDLEMLYNMRDKSLEAINQKYGLKTDQIKCYFHYQPSFYHLHVHFINLKYDAPASTTMSAILLDDVINNLELNPEHYKKSTLTFTRKNGDKLMEMFREALKN
Purified protein [1]
  Km: 1.23 µM
  Vmax: 1.66 µmol/min/mg
Purified protein [2]
  Km: 1.03 µM
  Vmax: 1.33 µmol/min/mg
Purified protein [3]
  Km: 2.36 µM
  Vmax: 2.06 µmol/min/mg
Purified protein [4]
  Km: 1.36 µM
  Vmax: 2 µmol/min/mg
Purified protein [5]
  Km: 1.17 µM
  Vmax: 1.53 µmol/min/mg
Purified protein [6]
  Km: 0.6 µM
  Vmax: 1.09 µmol/min/mg
Purified protein [7]
  Km: 1.12 µM
  Vmax: 0.91 µmol/min/mg
Purified protein [8]
  Km: 0.61 µM
  Vmax: 3.12 µmol/min/mg
Purified protein [9]
  Km: 1.83 µM
  Vmax: 3.06 µmol/min/mg
[10]
  Km: 3.85 µM
  Vmax: 4.65 µmol/min/mg
